{
  "source": "patent US20220204626A1",
  "about": "(REMEGEN, published 2022)",
  "key": {"[1]": {"target": "T1, TGF-β1 (UniProt P01137 279-390, limits assumed)", "T1 sequence (P01137 279-390 limits assumed)": "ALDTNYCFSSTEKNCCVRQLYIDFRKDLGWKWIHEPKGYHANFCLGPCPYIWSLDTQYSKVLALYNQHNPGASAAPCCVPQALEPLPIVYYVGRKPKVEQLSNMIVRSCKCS", "assay": "ELISA, TGF-β1 coated at 2 µg/ml, detection with goat anti-human Fc-HRP", "text": "(§1) (11) Reading: The absorbance values were read at 450/655 nm respectively using the MD microplate reader. The concentration of the sample to be tested was used as the abscissa and the absorbance value as the ordinate to plot making a 4-PL curve, and the software automatically gave the EC50 value. (see table 7)."}, "[2]": {"target": "T1, TGF-β1", "assay": "ELISA on coated TGF-β1, ratio of EC50 values against TGF-β-R-His", "text": "as §1"}, "[3]": {"target": "VEGF (UniProt P15692-4 27-191, limits assumed)", "sequence (P15692 other isoform, or with tags, fused parts or gaps limits assumed)": "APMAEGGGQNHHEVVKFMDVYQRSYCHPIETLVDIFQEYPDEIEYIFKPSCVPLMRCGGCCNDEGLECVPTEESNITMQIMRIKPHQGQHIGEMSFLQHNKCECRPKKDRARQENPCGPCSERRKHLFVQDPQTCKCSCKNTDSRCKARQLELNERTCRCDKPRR", "assay": "ELISA, VEGF coated at 1 µg/ml, detection with anti-His-HRP", "text": "as §1"}, "[4]": {"target": "T1, TGF-β1", "assay": "ELISA, TGF-β1 coated at 2 µg/ml, detection with anti-His-HRP", "text": "as §1"}, "[5]": {"target": "T2, CTLA-4 Protein (UniProt P16410 36-161, limits assumed)", "T2 sequence (looked up)": "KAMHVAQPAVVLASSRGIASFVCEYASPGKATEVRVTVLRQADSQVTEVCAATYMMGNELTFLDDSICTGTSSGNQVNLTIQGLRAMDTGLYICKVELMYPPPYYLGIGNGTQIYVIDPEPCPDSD", "assay": "ELISA, CTLA-4 Protein coated at 20 µg/ml, biotinylated sample, detection with streptavidin-HRP", "method": "Hib-PDC sample well and CD80-His well: Streptavidin-HRP was diluted at 1:2000, and added at 100 μl/well. Then the plate was incubated at 37° C. for 1 h±10 min;\nas §1"}},
  "data": [
    {"binder": "Hib-PLT (bispecific antibody, also called fusion protein Hib-PLT; Hibody bispecific fusion protein Hib-PLT) heavy: not shown light: DIVLTQSPASLAVSPGQRATITCRASKSVHTSGYSYMHWYQQKPGQPPKLLIYLASNLESGVPARFSGSGSGTDFTLTINPVEANDTANYYCQHSGELPYTFGGGTKVEIKRTVAAPSVFIFPPSDEQLKSGTASVVCLLNNFYPREAKVQWKVDNALQSGNSQESVTEQDSKDSTYSLSSTLTLSKADYEKHKVYACEVTHQGLSSPVTKSFNRGEC", "values": [
      {"measurement": "EC50", "setting": "[1]", "value": 0.164, "unit": "nM"},
      {"measurement": "fold better binding activity than TGF-β receptor monomer", "setting": "[2]", "value": "~70", "unit": "times"}
    ]},
    {"binder": "VEGF-R-His (receptor, The His tag is set after the fragment only by default; also called VEGF receptor monomer; not shown: His tag) GRPFVEMYSEIPEIIHMTEGRELVIPCRVTSPNITVTLKKFPLDTLIPDGKRIIWDSRKGFIISNATYKEIGLLTCEATVNGHLYKTNYLTHRQTNTIIDVVLSPSHGIELSVGEKLVLNCTARTELNVGIDFNWEYPSSKHQHKKLVNRDLKTQSGSEMKKFLSTLTIDGVTRSDQGLYTCAASSGLMTKKNSTFVRVHEP", "values": [
      {"measurement": "EC50", "setting": "[3]", "value": 2150, "unit": "nM"}
    ]},
    {"binder": "TGF-β-R-His (receptor, The His tag is set after the fragment only by default; also called TGF-β receptor monomer; His-tagged TGF-βRII extracellular region fragment; not shown: His tag) TIPPHVQKSVNNDMIVTDNNGAVKFPQLCKFCDVRFSTCDNQKSCMSNCSITSICEKPQEVCVAVWRKNDENITLETVCHDPKLPYHDFILEDAASPKCIMKEKKKPGETFFMCSCSSDECNDNIIFSEEYNTSNPD", "values": [
      {"measurement": "EC50", "setting": "[4]", "value": 11.6, "unit": "nM"}
    ]},
    {"binder": "CD80-His (ligand, biotinylated sample in the assay (sites not given), The His tag is set after the fragment only by default; also called CD80 monomer; His-tagged CD80 fragment; not shown: His tag) VIHVTKEVKEVATLSCGHNVSVEELAQTRIYWQKEKKMVLTMMSGDMNIWPEYKNRTIFDITNNLSIVILALRPSDEGTYECVVLKYEKDAFKREHLAEVTLSVKADFPTPSISDFEIPTSNIRRIICSTSGGFPEPHLSWLENGEELNAINTTVSQDPETELYAVSSKLDFNMTTNHSFMCLIKYGHLRVNQTFNWN", "values": [
      {"measurement": "EC50", "setting": "[5]", "value": 50.7, "unit": "nM"}
    ]}
  ]
}
